# Assays:
# [1] = target: ACE2, membrane-anchored, endogenously expressed on VeroE6 cells (African green monkey (endogenous in VeroE6)); experiment: single-molecule force spectroscopy (AFM)
# [2] = target: ACE2, membrane-anchored, endogenously expressed on VeroE6 cells (African green monkey (endogenous in VeroE6)); experiment: single-molecule force spectroscopy (AFM) + kinetic model
substance,measurement,setting,value
SARS-CoV-2 Delta variant Spike trimer (from UniProt P0DTC2) (natural protein),Kd,[1],500 pM
same,on-rate of three bonds,[1],23 s⁻¹
same,on-rate of two bonds,[1],80 s⁻¹
same,percentage of one bond,[1],68.7%
same,bond lifetime at 20 pN (calculated),[2],460 s
same,bond lifetime at zero force (calculated),[2],42000 s
SARS-CoV-2 Omicron (B.1.1.529) variant Spike trimer (from UniProt P0DTC2) (natural protein),Kd,[1],55 pM
same,on-rate of two bonds,[1],49 s⁻¹
same,percentage of one bond,[1],85.4%
same,percentage of three bonds,[1],1%
same,percentage of two bonds,[1],13.6%
same,bond lifetime at 20 pN (calculated),[2],960 s
same,bond lifetime at zero force (calculated),[2],370000 s
SARS-CoV-2 Delta variant RBD monomer (from UniProt P0DTC2) (domain or fragment),Kd,[1],970 pM
SARS-CoV-2 Omicron (B.1.1.529) variant RBD monomer (from UniProt P0DTC2) (domain or fragment),Kd,[1],68 pM

# Source: PMC9789309
